Legend:
[1] = target: GhV F I268F/Q287P ectodomain (Ghanaian virus); test: negative-stain EM
[2] = target: GhV F I268F/Q287P/S196C/A215C ectodomain (Ghanaian virus); test: negative-stain EM

Substance | stoichiometry N [1] | stoichiometry N [2]
GhV F I268F/Q287P ectodomain (domain or fragment) | 3 | –
GhV F I268F/Q287P/S196C/A215C ectodomain (domain or fragment) | – | 3

— PMC11032465
